Drawing on article PMC9762590 (PLOS Pathogens, 2022), this text covers binding result and Kd for 3 molecules.

Assay [1] has as its target T1, NANP5.5-1210 Fab-LS-Th2R nanoparticles (Plasmodium falciparum (3D7/NF54-type …, UniProt Q7K740)).
T1 construct: 5.5 NANP repeat motifs of the PfCSP central repeat (NANP5.5); 8-aa linker; Aquifex aeolicus lumazine synthase (LS) monomer; Aquifex aeolicus lumazine synthase (LS) alone, from the co-transfected LS-pHLsec plasmid; 60-mer LS nanocage; source: HEK293F, transient co-transfection, secreted, purified (StrepTrap, SEC on Superose 6); copies: + +
T1 chain: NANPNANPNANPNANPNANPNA
Kind of assay: BLI; Fabs immobilised on anti-human Fab-CH1 biosensors (10 μg/mL), dipped into nanoparticles; kinetics buffer PBS pH 7.4, 0.01% BSA, 0.002% Tween-20; Octet RED96. Particulars: both partners purified.

The target in assay [2] is T2, NANP6 peptide (Plasmodium falciparum (synthetic repeat …, N-terminal biotin-aminohexanoic acid tag; unmodified C-terminus).
T2 construct: PfCSP central repeat motifs; source: synthetic peptide (CPC Scientific)
T2 chain: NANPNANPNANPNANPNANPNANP
Kind of assay: SPR; Carterra LSA, CMD200M chip, 25°C; mAbs directly amine-coupled, PfCSP peptides as analytes (two-fold series, top 8 μg/ml) in 1X HBSTE; 1:1 Langmuir fit; KD includes avidity effect for antigens with multiple repeats. Particulars: both partners purified.

B1: 1210 Fab (Fab, V domains shown)
VH: QVQLVESGGGVVQPGRSLRLSCAASGFTFSNYGMHWVRQAPGKGLEWVAVIWYDGSKKYYADSVKGRFTISRDNSKNTLYLQMNSLRAEDTAVYYCARVRDSSDYYGDAFDIWGQGTMVTVSS
VL: DIQMTQSPSTLSASVGDRVTITCRASQSISSWLAWYQQKPGKAPKLLIYKASNLESGVPLRFSGSGSGTEFTLTISSLQPDDFATYYCQQYNNYWTFGQGTKVEIK
Regarding B1, the binding result in assay [1] was “binds”.

B2: Fab 2541 (Fab, V domains shown)
VH: QVQLVESGGGVVQPGRSLRLSCAASGFTFSSYGMHWVRQTTGKGLEWVAIIWHDGSKKYYADSVKGRLTISRDNSKNTLYLQMNSLRVEDTALYYCARVGDYSDFKYGAFDIWGQGTMVTVSS
VL: DIQMTQSPSTLSASVGDRVTITCRASQSISSWLAWYQQKPGKAPNLLIYKASTLESGVPSRFSGSGSGTEFTLTISSLQPDDFATYYCQQYNSYWTFGQGTRVEIK
As to B2, in assay [1], the binding result was “binds”.

B3: monoclonal antibody (mAb) 850 (antibody, V domains shown)
VH: QVQLVESGGGVVQPGRSLRLSCAASGFTFSNFGMHWIRQSPGKGLEWVAIIWYDGSNTYYADSVKGRFTISRDNSKNTLYLQMNSLRAEDTAVYYCAKVWFGESEDNYSVDVWGQGTTVTVSS
VL: DIQMTQSPSTLSTSVGDRVTITCRASQSISNWLAWYQQKPGKAPKLLIYKASTLESGVPSRFSGSGSGTEFTLTISSLQPDDFATYYCQQYSSYWTFGQGTKLEIK
notes: VH of mAb 850 (IGHV3-33); human IgG1 heavy chain constant region (antibodies expressed as fully human IgG1); VK of mAb 850 (IGKV1-5); human Ig kappa constant region (antibodies expressed as fully human IgG1); IgG1, kappa; source: recombinantly expressed as fully human IgG1; re-expressed in CHO-3E7 cells, purified (MabSelect SuRe LX)
B3 came in with a Kd in assay [2] of 0.025 nM.
